From article PMC3369931

Assays:
Test in all cases: EMSA
[1] = tested on: EutV ANTARcc (Enterococcus faecalis (V583?)); conditions: 10 mM Mg2+; 50 mM Hepes pH 7.5, 150 mM NaCl, 10 mM MgCl2, 2.5 ng/ul yeast tRNA, ~2 fmol RNA in 10 ul, 30 min at 25 C; EMSA on 5% native TBE gel, or DRaCALA on …
[2] = tested on: EutV full length (Enterococcus faecalis (V583?)); conditions: unphosphorylated; 10 mM Mg2+; 50 mM Hepes pH 7.5, 150 mM NaCl, 10 mM MgCl2, 2.5 ng/ul yeast tRNA, ~2 fmol RNA in 10 ul, 30 min at 25 C; EMSA on 5% native TBE gel, or DRaCALA on …
[3] = tested on: EutV ANTAR (Enterococcus faecalis (V583?)); conditions: 10 mM Mg2+; 50 mM Hepes pH 7.5, 150 mM NaCl, 10 mM MgCl2, 2.5 ng/ul yeast tRNA, ~2 fmol RNA in 10 ul, 30 min at 25 C; EMSA on 5% native TBE gel, or DRaCALA on …

GGGCAAAGAAUCAGAAACACAAUGGCGUGUUUUAACAAUCGGCAAAGGAGCCCAAGACUAAGUACGUG [eutP 5' leader dual hairpin RNA, wild type]
Kd [1]: 0.7 µM
Kd [2]: 10 µM
binding signal (fold weaker than ANTARcc) [3]: 100
